Source: patent US20050266528A1

Biological target: von Willebrand factor (vWF) (UniProt P04275)
Assay: affinity chromatography, peptide immobilised, linear 0-2 mol/l NaCl gradient, vWF antigen ELISA of fractions

Chain of UniProt P04275 (P04275 764-2813): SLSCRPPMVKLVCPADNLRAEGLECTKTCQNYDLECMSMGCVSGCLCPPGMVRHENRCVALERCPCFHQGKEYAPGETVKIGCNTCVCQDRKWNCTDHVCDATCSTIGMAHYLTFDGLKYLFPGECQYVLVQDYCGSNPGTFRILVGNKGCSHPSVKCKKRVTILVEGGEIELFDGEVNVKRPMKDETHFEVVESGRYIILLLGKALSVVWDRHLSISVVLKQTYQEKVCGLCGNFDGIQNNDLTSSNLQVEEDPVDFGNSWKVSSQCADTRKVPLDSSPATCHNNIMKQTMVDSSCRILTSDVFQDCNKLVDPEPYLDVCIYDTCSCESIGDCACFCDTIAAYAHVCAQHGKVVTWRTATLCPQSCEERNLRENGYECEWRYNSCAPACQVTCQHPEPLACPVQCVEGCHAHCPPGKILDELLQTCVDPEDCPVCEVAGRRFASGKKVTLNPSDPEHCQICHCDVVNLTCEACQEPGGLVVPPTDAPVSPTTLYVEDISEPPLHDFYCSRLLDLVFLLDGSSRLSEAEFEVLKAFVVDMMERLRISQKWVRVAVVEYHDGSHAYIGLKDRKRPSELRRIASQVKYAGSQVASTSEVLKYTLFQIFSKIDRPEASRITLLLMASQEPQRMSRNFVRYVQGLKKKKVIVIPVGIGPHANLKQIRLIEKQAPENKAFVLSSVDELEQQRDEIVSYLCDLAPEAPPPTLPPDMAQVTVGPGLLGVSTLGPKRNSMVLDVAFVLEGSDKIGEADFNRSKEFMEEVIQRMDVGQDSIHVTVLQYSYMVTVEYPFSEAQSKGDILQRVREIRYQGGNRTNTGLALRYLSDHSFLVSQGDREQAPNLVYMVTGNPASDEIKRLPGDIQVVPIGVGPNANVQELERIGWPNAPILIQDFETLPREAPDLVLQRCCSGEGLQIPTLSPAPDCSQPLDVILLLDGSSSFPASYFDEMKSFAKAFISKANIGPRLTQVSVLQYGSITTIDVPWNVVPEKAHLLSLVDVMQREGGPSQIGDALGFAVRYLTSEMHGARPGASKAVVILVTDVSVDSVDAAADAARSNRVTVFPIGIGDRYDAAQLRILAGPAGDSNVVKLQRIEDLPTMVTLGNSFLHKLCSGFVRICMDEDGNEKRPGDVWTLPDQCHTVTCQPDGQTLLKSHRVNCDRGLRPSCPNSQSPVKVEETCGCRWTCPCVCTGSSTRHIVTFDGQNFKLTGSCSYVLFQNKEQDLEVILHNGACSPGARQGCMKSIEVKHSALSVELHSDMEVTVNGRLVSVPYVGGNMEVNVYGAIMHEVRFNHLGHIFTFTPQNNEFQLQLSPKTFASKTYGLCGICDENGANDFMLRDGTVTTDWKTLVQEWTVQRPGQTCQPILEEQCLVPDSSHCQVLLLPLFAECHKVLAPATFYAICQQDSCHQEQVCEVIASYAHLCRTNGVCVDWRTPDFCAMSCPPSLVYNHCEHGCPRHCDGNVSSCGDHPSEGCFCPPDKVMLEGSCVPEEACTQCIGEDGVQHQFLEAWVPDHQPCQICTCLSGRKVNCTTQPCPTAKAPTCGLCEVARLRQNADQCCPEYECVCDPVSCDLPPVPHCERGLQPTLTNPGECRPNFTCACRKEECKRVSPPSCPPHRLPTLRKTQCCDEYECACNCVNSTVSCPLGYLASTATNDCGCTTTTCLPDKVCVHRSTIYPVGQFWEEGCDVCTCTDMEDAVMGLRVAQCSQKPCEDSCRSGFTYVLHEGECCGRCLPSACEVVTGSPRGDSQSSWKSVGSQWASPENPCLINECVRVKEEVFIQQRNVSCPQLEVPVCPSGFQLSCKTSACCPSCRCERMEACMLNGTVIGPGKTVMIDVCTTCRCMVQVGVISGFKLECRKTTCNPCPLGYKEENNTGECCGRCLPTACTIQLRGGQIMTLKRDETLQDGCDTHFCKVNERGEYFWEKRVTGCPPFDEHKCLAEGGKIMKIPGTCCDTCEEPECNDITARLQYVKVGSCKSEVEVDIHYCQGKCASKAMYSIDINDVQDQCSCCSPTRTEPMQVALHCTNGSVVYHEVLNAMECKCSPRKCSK

NaCl concentration at which vWF elutes from the peptide: 100 mmol/L
Binder: AAGGILHLELLV [peptide with the sequence …]
